T1: TMEM147 of TMEM147-5aa-TEV-GFP-40aa(ALFA)-EMC2 (human, UniProt Q9BVK8 1-224)
T1 sequence: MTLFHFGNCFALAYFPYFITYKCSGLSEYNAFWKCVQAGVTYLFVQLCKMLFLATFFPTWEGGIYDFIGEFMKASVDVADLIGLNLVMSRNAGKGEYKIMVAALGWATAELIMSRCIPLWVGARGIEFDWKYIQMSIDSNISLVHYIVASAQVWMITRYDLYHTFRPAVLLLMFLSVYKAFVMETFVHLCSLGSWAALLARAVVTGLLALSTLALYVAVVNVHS

T2: EMC1 (human (endogenous in Expi293), UniProt Q8N766 23-993)
T2 sequence: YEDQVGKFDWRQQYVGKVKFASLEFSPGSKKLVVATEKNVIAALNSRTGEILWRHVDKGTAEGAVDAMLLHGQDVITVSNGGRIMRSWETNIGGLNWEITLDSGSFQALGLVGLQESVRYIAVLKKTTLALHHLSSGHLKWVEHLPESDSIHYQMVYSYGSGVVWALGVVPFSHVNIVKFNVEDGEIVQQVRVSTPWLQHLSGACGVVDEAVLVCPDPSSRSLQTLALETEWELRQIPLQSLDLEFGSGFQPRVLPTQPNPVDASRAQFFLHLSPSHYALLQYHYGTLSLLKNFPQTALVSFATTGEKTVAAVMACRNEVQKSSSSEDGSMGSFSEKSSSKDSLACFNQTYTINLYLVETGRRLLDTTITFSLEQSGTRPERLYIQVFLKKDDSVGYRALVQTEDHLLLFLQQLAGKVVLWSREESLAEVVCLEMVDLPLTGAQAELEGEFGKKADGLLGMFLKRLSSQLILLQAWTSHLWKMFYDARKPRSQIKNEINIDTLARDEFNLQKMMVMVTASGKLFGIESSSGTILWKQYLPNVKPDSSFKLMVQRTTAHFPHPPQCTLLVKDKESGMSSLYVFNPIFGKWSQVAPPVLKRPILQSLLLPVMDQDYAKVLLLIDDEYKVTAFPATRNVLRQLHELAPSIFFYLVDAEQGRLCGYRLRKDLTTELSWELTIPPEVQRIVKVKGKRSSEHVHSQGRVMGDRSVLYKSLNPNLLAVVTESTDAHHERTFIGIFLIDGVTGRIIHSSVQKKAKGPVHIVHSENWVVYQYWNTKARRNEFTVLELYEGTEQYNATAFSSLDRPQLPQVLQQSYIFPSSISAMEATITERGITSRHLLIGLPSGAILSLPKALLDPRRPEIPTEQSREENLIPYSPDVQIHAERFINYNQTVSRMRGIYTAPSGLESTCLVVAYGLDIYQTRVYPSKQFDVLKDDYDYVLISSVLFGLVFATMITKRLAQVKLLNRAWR

T3: NCLN of BOS (tNOMO) (human, UniProt Q969V3 43-563)
T3 sequence: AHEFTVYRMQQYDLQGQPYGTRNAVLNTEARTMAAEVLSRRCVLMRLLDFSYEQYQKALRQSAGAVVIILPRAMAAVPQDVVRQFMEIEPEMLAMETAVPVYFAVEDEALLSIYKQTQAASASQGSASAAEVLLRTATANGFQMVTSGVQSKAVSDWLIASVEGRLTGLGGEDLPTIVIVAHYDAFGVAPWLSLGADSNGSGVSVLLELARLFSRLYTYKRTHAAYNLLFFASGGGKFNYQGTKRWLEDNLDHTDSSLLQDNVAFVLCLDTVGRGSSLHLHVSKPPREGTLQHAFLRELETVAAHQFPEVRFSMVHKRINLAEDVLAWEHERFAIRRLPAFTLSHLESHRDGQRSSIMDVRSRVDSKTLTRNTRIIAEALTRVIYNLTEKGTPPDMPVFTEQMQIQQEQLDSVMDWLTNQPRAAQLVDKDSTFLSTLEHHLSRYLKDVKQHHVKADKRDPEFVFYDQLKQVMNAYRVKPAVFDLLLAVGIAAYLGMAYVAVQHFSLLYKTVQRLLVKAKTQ

B1: EMC5 (natural protein)
chain: MAPSLWKGLVGIGLFALAHAAFSAAQHRSYMRLTEKEDESLPIDIVLQTLLAFAVTCYGIVHIAGEFKDMDATSELKNKTFDTLRNHPSFYVFNHRGRVLFRPSDTANSSNQDALSSNTSLKLRKLESLRR
B2: NCLN (natural protein)
chain: T3 sequence
B3: TMEM147-GFP (natural protein)
chain: T1 sequence
B4: TMEM147 (from TMEM147-TEV-GFP, tag removed) (natural protein)
chain: T1 sequence

Key:
Test in all cases: cryo-EM structure
[1] = molecular target: T1, TMEM147 of …
[2] = molecular target: T2, EMC1
[3] = molecular target: B2
[4] = molecular target: T3, NCLN of BOS (tNOMO)

Binder: B1
binding result [1]: binds

Binder: B2
binding result [2]: binds

Binder: B3
binding result [3]: binds

Binder: B4
binding result [4]: binds

Reference: publication doi:10.1101/2023.11.28.569054 (bioRxiv, 2023)
